In patent US20210139579A1 (published 2021):
Substitutions are numbered along the chain they refer to.

B1: ERR1-403 chimeric rabbit/human Fab (Fab, V domains shown)
VH: QEQLKESGRGLVQPGGSLKLSCKASGFDFSGWYMTWVRQAPGKGLEWIGTIGTTKGRTYYASWVNGRFTISSDNAQNTVDLQMNSLTAADRATYFCVRGSDYFDLWGPGTLVTISS
VL: SYELTQLPSVSVSLGQTARITCGGNSIGSKAVNWYQQKPGLAPGLLIYDDDERPSGVPARFSGSNSGDTATLTISGAQAGDEADYYCQLWDSSAGAYVFGGGTQLTVTG
B2: ERR1-TOP43 chimeric rabbit/human Fab (Fab, V domains shown)
VH: QSLEESGGRLVTPGTPLTLTCTVSGFSLSSYWMSWVRQAPGKGLEWIGAIYGSGNTYYASWAKGRFTISKTSTTVDLKITSPTTEDTATYFCARDVHSTATDLWGPGTLVTISS
VL: B1 VL with S26N, D49N, A59D
B3: ERR1-301 chimeric rabbit/human Fab (Fab, V domains shown)
VH: QEQLEESGGGLVTPGGSLTLTCTASGFTISTYHMSWVRQAPGKGLEWIGSIYAGSGSTYYASWVNGRFTISSNTTQNTVSLQMNSLTVADTATYFCARDHPSYGMDLWGPGTLVTVSS
VL: B1 VL with A59D, G63A, G80E, G95V
B4: XBR1-402 chimeric rabbit/human Fab (Fab, V domains shown)
VH: QEQQKESGGGLFKPTDTLTLTCTASGFDISSYYMSWVRQAPGNGLEWIGAIGISGNAYYASWAKSRSTITRNTNLNTVTLKMTSLTAADTATYFCARDHPTYGMDLWGPGTLVTVSS
VL: SYELTQLPSVSVSLGQTARITCEGNNIGSKAVHWYQQKPGLAPGLLIYDDDERPSGVPDRFSGSNSGDTATLTISGAQAGDEADYYCQVWDSSAYVFGGGTQLTVTG

Target: hFc-hROR1 (fusion protein of the extracellular domain of human ROR1 and the Fc domain of human IgG1) (human, UniProt P01857 99-330 = IgG part)
Sequence (P01857 other isoform, or with tags, fused parts or gaps): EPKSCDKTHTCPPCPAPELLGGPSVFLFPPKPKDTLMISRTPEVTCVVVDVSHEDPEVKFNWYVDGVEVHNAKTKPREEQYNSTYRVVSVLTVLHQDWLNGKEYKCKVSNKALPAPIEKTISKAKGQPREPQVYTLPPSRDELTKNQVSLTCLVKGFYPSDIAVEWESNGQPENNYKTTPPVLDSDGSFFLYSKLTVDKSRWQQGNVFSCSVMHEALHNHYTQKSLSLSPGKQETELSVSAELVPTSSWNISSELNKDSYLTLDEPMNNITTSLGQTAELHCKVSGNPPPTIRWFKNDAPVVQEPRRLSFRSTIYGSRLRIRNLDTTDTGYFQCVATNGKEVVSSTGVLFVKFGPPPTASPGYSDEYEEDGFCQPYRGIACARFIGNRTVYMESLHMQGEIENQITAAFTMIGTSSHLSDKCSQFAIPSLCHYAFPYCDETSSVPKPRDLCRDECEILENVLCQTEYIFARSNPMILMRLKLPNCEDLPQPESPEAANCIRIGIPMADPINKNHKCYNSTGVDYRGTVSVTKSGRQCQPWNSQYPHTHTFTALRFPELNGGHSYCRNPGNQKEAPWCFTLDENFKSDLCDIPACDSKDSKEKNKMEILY
Test: SPR

Row | Kd [nM] | Binder
1 | 41.6 | B1
2 | 1.11 | B2
3 | 118 | B3
4 | 5.81 | B4
